Laboratory results published in PMC7416571 (Journal of molecular biology, 2019).

Experiments:
Assay in all cases: AUC
AUC = target: the molecule itself
[1] = target: T1, phage λ terminase large subunit TerL^λ-D178N (phage λ, UniProt P03708 1-641, D178N)
T1 sequence (looked up): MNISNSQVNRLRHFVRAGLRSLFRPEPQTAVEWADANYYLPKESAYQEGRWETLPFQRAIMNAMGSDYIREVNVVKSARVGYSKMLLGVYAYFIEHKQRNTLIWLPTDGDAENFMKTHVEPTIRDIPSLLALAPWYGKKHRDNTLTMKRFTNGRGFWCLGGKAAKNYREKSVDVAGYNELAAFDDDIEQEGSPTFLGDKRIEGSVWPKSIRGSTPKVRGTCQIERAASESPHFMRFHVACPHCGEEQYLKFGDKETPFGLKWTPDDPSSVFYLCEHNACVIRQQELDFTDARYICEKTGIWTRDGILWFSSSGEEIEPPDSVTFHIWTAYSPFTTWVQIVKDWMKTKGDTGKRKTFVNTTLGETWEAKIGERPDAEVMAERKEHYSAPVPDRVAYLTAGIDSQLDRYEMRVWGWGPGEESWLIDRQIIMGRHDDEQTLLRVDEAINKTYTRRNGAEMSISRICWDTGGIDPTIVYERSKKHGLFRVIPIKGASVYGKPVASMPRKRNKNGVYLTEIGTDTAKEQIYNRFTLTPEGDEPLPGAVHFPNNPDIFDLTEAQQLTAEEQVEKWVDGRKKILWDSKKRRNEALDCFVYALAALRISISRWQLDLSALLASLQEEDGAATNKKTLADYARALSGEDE

[2] = target: T2, phage λ terminase large subunit TerL^λ, wild type (phage λ, UniProt P03708 1-641)
T2 sequence (looked up): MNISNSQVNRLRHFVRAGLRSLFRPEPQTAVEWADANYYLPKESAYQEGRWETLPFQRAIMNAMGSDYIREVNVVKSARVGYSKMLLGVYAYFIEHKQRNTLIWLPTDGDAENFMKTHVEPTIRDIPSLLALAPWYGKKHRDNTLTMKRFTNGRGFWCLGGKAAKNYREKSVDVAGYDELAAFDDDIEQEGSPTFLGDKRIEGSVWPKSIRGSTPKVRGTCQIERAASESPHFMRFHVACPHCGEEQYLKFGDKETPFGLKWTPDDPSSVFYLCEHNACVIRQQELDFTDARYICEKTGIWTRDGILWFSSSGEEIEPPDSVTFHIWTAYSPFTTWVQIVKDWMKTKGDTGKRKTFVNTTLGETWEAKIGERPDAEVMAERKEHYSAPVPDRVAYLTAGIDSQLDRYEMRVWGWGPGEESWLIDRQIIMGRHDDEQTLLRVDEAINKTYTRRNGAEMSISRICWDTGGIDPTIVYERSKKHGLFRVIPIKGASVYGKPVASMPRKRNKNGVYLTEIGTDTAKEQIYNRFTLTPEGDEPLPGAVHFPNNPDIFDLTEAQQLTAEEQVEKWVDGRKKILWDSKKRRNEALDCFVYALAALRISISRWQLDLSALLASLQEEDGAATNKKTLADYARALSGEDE

Measured: binding result

B1: phage λ terminase small subunit TerS^λ (natural protein, UniProt P03707 1-181, looked up)
chain: MEVNKKQLADIFGASIRTIQNWQEQGMPVLRGGGKGNEVLYDSAAVIKWYAERDAEIENEKLRREVEELRQASEADLQPGTIEYERHRLTRAQADAQELKNARDSAEVVETAFCTFVLSRIAGEIASILDGLPLSVQRRFPELENRHVDFLKRDIIKAMNKAAALDELIPGLLSEYIEQSG
binds: all assays above
